Test results from patent publication US20220175942A1 (OXFORD UNIVERSITY INNOVATION, published 2022).

B1: CCL11_HUMAN (ligand)
chain: not shown
notes: Biotinylated (detected with streptavidin-Alexa647) in yeast display; AlexaFluor 647 labelled (Almac) in thermophoresis
B6: CCL1_HUMAN (ligand)
chain: KSMQVPFSRCCFSFAEQEIPLRAILCYRNTSSICSNEGLIFKLKRGKEACALDTVGWVQRHRKMLRHCPSKRK
notes: as for B1
B10: CCL18_HUMAN (ligand)
chain: AQVGTNKELCCLVYTSWQIPQKFIVDYSETSPQCPKPGVILLTKRGRQICADPNKKWVQKYISDLKLNA
notes: as for B1
B16: CCL19_HUMAN (ligand)
chain: GTNDAEDCCLSVTQKPIPGYIVRNFHYLLIKDGCRVPAVVFTTLRGRQLCAPPDQPWVERIIQRLQRTSAKMKRRSS
notes: as for B1

Assays:
P546_AMBCA = target: T1, P546_AMBCA (Amblyomma cajennense, UniProt A0A023FBW7 22-118); assay: microscale thermophoresis, AlexaFluor 647 labelled chemokine
T1 construct: Tick evasin; also called Evasin
T1 sequence: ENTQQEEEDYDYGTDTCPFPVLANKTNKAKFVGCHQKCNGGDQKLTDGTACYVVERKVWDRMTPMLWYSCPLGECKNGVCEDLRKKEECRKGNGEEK

CCL17_HUMAN [1] = target: T2, CCL17_HUMAN (human, UniProt Q92583 24-94); assay: yeast surface display library FACS screen, labelled chemokine (col C: isolated in)
T2 construct: Biotinylated (detected with streptavidin-Alexa647) in yeast display; AlexaFluor 647 labelled (Almac) in thermophoresis
T2 sequence: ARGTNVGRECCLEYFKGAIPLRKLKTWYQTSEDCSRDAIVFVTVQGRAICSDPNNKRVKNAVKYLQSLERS

CCL11_HUMAN = target: B1; assay: as above
CCL11_HUMAN, sequence (P51671 24-97 limits assumed): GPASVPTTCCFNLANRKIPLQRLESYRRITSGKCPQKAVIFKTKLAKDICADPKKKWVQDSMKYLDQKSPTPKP

CCL8_HUMAN = target: T3, CCL8_HUMAN (human, UniProt P80075 24-99); assay: yeast surface display FACS re-test, >3 fold MFI over control (col D);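 further: yeast displaying putative tick Evasins stained with biotinylated human chemokine plus streptavidin-Alexa647, flow cytometry, positive when MFI exceeds 3-fold the empty-vector or no-chemokine background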
T3 construct: Biotinylated (detected with streptavidin-Alexa647) in yeast display; AlexaFluor 647 labelled (Almac) in thermophoresis
T3 sequence: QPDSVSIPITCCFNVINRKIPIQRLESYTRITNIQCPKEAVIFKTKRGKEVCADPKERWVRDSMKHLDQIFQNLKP

CCL20_HUMAN = target: T4, CCL20_HUMAN (human, UniProt P78556 27-96); assay: as above
T4 construct: Biotinylated (detected with streptavidin-Alexa647) in yeast display; AlexaFluor 647 labelled (Almac) in thermophoresis
T4 sequence (P78556 27-96 limits assumed): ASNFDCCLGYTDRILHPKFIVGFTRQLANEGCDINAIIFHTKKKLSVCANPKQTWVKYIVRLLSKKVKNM

CCL3_HUMAN = target: T5, CCL3_HUMAN (human, UniProt P10147 24-92); assay: as above
T5 construct: Biotinylated (detected with streptavidin-Alexa647) in yeast display; AlexaFluor 647 labelled (Almac) in thermophoresis
T5 sequence: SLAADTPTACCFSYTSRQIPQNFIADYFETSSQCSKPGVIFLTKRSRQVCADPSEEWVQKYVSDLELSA

CCL18_HUMAN = target: B10; assay: as above
CXCL8_HUMAN [2] = target: T6, CXCL8_HUMAN (human, UniProt P10145 28-99); assay: as above
T6 construct: Biotinylated (detected with streptavidin-Alexa647) in yeast display; AlexaFluor 647 labelled (Almac) in thermophoresis
T6 sequence: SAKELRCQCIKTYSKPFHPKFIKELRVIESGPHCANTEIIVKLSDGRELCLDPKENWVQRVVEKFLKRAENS

CCL5_HUMAN [3] = target: T7, CCL5_HUMAN (human, UniProt P13501 24-91); assay: as above
T7 construct: Biotinylated (detected with streptavidin-Alexa647) in yeast display; AlexaFluor 647 labelled (Almac) in thermophoresis
T7 sequence: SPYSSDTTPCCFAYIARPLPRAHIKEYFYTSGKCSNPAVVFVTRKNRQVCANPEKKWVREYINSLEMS

CXCL10_HUMAN = target: T8, CXCL10_HUMAN (human, UniProt P02778 22-98); assay: yeast surface display library FACS screen, labelled chemokine (col C: isolated in)
T8 construct: Biotinylated (detected with streptavidin-Alexa647) in yeast display; AlexaFluor 647 labelled (Almac) in thermophoresis
T8 sequence: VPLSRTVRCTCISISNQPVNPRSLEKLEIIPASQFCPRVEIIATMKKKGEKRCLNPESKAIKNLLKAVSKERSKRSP

CCL19_HUMAN [4] = target: B16; assay: as above
P467_RHIPU = target: T9, P467_RHIPU (Rhipicephalus pulchellus, UniProt L7M8Z8 22-127); assay: as above
T9 construct: Tick evasin; also called Evasin
T9 sequence: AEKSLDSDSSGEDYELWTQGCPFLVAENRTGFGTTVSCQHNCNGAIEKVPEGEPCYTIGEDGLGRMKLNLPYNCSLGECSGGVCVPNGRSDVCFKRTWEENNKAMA

CCL1_HUMAN = target: B6; assay: as above
CCL25_HUMAN [5] = target: T10, CCL25_HUMAN (human, UniProt O15444 24-150); assay: as above
T10 construct: Biotinylated (detected with streptavidin-Alexa647) in yeast display; AlexaFluor 647 labelled (Almac) in thermophoresis
T10 sequence: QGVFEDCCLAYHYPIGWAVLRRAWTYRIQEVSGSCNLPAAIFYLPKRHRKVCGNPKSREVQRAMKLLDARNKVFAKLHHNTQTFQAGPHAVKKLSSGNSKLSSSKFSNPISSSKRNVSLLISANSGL

CCL19_HUMAN [6] = target: B16; assay: yeast surface display FACS re-test, >3 fold MFI over control (col D);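 further: yeast displaying putative tick Evasins stained with biotinylated human chemokine plus streptavidin-Alexa647, flow cytometry, positive when MFI exceeds 3-fold the empty-vector or no-chemokine background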
CCL17_HUMAN [7] = target: T2, CCL17_HUMAN; assay: as above
CCL5_HUMAN [8] = target: T7, CCL5_HUMAN; assay: yeast surface display library FACS screen, labelled chemokine (col C: isolated in)
P1182_AMBMA = target: T11, P1182_AMBMA (Amblyomma maculatum, UniProt G3MJ83 27-115); assay: as above
T11 construct: Tick evasin; also called Evasin
T11 sequence: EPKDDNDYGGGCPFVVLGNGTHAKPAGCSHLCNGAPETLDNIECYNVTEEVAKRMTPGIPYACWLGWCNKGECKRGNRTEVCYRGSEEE

P1243_AMBAM [9] = target: T12, P1243_AMBAM (Amblyomma americanum, UniProt A0A0C9S461 26-123); assay: as above
T12 construct: Tick evasin; also called Evasin
T12 sequence: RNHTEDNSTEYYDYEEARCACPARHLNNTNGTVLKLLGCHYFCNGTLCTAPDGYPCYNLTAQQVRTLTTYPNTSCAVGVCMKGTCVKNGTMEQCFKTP

CCL25_HUMAN [10] = target: T10, CCL25_HUMAN; assay: yeast surface display FACS re-test, >3 fold MFI over control (col D);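 further: yeast displaying putative tick Evasins stained with biotinylated human chemokine plus streptavidin-Alexa647, flow cytometry, positive when MFI exceeds 3-fold the empty-vector or no-chemokine background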
CXCL8_HUMAN [11] = target: T6, CXCL8_HUMAN; assay: yeast surface display library FACS screen, labelled chemokine (col C: isolated in)
P991_AMBCA = target: T13, P991_AMBCA (Amblyomma cajennense, UniProt A0A023FFD0 29-136); assay: as above
T13 construct: Tick evasin; also called Evasin
T13 sequence: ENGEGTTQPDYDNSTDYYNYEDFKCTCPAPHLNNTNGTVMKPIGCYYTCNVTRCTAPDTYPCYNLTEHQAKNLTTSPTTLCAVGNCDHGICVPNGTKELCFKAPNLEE

P1243_AMBAM [12] = target: T12, P1243_AMBAM; assay: yeast surface display FACS re-test, >3 fold MFI over control (col D);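 further: yeast displaying putative tick Evasins stained with biotinylated human chemokine plus streptavidin-Alexa647, flow cytometry, positive when MFI exceeds 3-fold the empty-vector or no-chemokine background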

B1 showed a Kd (P546_AMBCA) of 500 nM.

B2: CCL22_HUMAN (ligand)
chain: GPYGANMEDSVCCRDYVRYRLPLRVVKHFYWTSDSCPRPGVVLLTFRDKEICADPRVPWVKMILNKLSQ
notes: as for B1
B2 gave a Kd (P546_AMBCA) of 175 nM.

B3: CXCL11_HUMAN (ligand)
chain: FPMFKRGRCLCIGPGVKAVKVADIEKASIMYPSNNCDKIEVIITLKENKGQRCLNPKSKQARLIIKKVERKNF
notes: as for B1
B3: no binding (P546_AMBCA).

B4: P1030_AMBPA (other)
chain: GPPSIPGNESIPGCGDAGTTTAPEDNPKHYGTLTDKKGCTLPIIGTWMTAVDHQHLQGTRGERRGPTGKVNLPASCRKNCHGRQEILRDGIPCRKVVGNPKGSKKHLKSGCLRGKCLAGQCVNDGRRISCYVPRNITDTEPTPGLLAE
notes: Tick evasin
B4: binds (CCL17_HUMAN [1]); binds (CCL11_HUMAN); binds (CCL8_HUMAN). B4: binds (CCL20_HUMAN); binds (CCL3_HUMAN); binds (CCL18_HUMAN). B4: binds (CXCL8_HUMAN [2]); binds (CCL5_HUMAN [3]).

B5: P1219_IXORI (other)
chain: ASLAKETEDTTLPARALVDSPDSDNCSSPQLPYFDELTYMPLGFLAVNCTKTCPVGKNGTVVNGNKCIVTWSILDVSTITVLVGSCKNGYCISDGSSECRNITLAGEDSQEEEEEAEEDEEEDDGDEEEDEEEDEEENDDD
notes: Tick evasin; also called Evasin
B5: binds (CXCL10_HUMAN); binds (CCL19_HUMAN [4]).

In the case of B6, the binding result (P467_RHIPU) is reported as “binds” and the Kd (P546_AMBCA) is reported as 149 nM.

B7: P1005_AMBMA (other)
chain: EKDTPKNIPGCGDTGTTAAPPADNPKHFAVYTDKHGCTIKVIGTWMTKEDHSRLPVSLRRVRASSGRVMLPASCQKICNDTVKNFPEGTPCRLVTGDPIKGKNHIKDGCIRGYCSSGVCVSDKRNISCYVPPN
notes: as for B5
B7: binds (CCL1_HUMAN); binds (CCL25_HUMAN [5]); binds (CCL11_HUMAN). B7: binds (CCL19_HUMAN [6]); binds (CCL3_HUMAN); binds (CXCL8_HUMAN [2]). B7: binds (CCL17_HUMAN [7]); binds (CCL5_HUMAN [3]).

B8: P1283_IXORI (other)
chain: KEPEDTTLPPGALVDSPDSDNCSSPHLPYFDETTNMWMGFLAVNCTKKCPVGKHVTVVDGNKCIGTWSFLDELTITVLVGSCKDGFCETDGSSECRNITLAEEDSQEEEGAAAEEEDEEDEEDEEEEEAEEEREDDHDDA
notes: as for B5
B8: binds (CXCL10_HUMAN).

B9: P1063_AMBTR (other)
chain: QSEVGKNVPGCGDTETLEAPPQEKPPYYEYKDEEGCTQKVLESWFQAGERSTGRGQKKRGHGRRPSRVLRTVDCRKNCTVGITALPDGHLCLVPRGDPFTRGGAIKYGCYLGDCASGHCQHRYETVSCRLPAPDTTAKPYYVTPEK
notes: as for B5
B9: binds (CCL5_HUMAN [8]).

For B10, the binding result (P1182_AMBMA) was “binds”, the binding result (P1243_AMBAM [9]) was “binds” and the Kd (P546_AMBCA) was 86 nM.

B11: P698_RHISA (other)
chain: NEDDSSDYYDASPMNCSSMSVNSTMGWLSMNCTMSCNGTTFPLSNSTHCFHSYTNLTVQSRMETMTYNCSVGTCSNGTCVENGTTTTCW
notes: as for B5
B11: binds (CCL8_HUMAN).

B12: P1220_IXORI (other)
chain: GSTPSAMKTEDILKVLGSTSSLENHTDSSHCRYQELLDITKNIENAGFLAINCQRSCPNGKQTMVEGYGCIFKIKHATKRGKVKVKEGSCRKGACVRGSTRPPWRLLVLLGESKEEEFL
notes: as for B5
B12: binds (CCL25_HUMAN [5]).

B13: P1011_AMBTR (other)
chain: EKDTPKNIPGCEDAGTTAAPPADNPKHYAVYTDKNGCTFKVIGTWMTKEDHRRLPVSLRRVRASSGRVKLPASCQKICKHSVKKFPEGTPCRLVTRDPIKGKNHIKNGCIRGYCSSGVCVSDNRSISCYVLPNNTELTSPSGSFAE
notes: as for B5
B13: binds (CCL11_HUMAN); binds (CCL25_HUMAN [10]); binds (CCL18_HUMAN). B13: binds (CCL17_HUMAN [7]); binds (CCL5_HUMAN [3]).

B14: P1146_IXORI (other)
chain: GPDTKGDEESDENELFTVEYCGTNCTQLENGSWTPCSGNNGNCRCFHESDKTVGLCLSTEYTDFSEYPDPNSSEIIAAAPLPRERLIQ
notes: as for B5
B14: binds (CXCL8_HUMAN [11]).

B15: P943_IXORI (other)
chain: RSKQPTASQSSKNSIKAEFCDTNCTQGTNGAWSGCSEGCFCVHVGNNTKGRCMKLSSDYDYTTQ
notes: as for B5
B15: binds (CCL5_HUMAN [8]).

B16: binds (P991_AMBCA); binds (P1243_AMBAM [12]).
